From PMC8980893, “A fusion of the Bacteroides fragilis ferrous iron import proteins reveals a role for FeoA in stabilizing GTP-bound FeoB” (The Journal of Biological Chemistry, 2022)

What was measured:
BfNFeoAB = molecular target: T1, BfNFeoAB (Bacteroides fragilis, UniProt Q5LFM5); test: hydrogen-deuterium exchange mass spectrometry; assay type: binding; conditions: 25 mM Tris pD 7.5, 300 mM NaCl, 2% glycerol, 1 mM TCEP, 25 °C
T1 construct: gene BF9343_1287; N-terminal soluble domain of natural FeoAB fusion (FeoA, linker, G-protein and GDI domains), residues 1-438, without transmembrane region; from E. coli C43(DE3) deltaacrB; monomer, about 53 kDa; PDB 7R7B covers FeoA residues 1-74 only
T1 sequence (Q5LFM5 1-438): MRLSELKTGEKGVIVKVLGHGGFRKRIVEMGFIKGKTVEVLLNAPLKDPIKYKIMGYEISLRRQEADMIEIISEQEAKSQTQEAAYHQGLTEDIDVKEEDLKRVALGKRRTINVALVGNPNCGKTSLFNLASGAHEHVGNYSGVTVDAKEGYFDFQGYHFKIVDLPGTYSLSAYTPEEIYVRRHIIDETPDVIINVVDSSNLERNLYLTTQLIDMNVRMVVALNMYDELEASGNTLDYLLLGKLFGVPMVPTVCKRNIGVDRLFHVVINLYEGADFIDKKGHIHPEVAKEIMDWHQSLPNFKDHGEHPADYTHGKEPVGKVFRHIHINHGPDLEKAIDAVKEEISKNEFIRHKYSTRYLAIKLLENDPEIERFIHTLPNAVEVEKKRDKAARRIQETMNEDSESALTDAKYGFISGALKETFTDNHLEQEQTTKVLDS

[1] = molecular target: NFeoB region (G-protein domain and GDI domain) of Bacteroides fragilis FeoAB (Bacteroides fragilis)
[2] = molecular target: soluble N-terminal domain of Bacteroides fragilis FeoAB (FeoA fused to the N-terminal GTP-binding domain of FeoB) (Bacteroides fragilis); test: SEC; 120-ml Superdex 200, 4 °C, 25 mM Tris pH 7.5, 300 mM NaCl, 2% glycerol, 1 mM TCEP; after IMAC

## Nc1nc2c(ncn2[C@@H]2O[C@H](COP(=O)(O)OP(=O)(O)O)[C@@H](O)[C@H]2O)c(=O)[nH]1 [GDP]
BfNFeoAB; 5 mM GDP
  hydrogen-deuterium exchange mass spectrometry: binding of GDP elicits a mixture of protein protection and deprotection

## Nc1nc2c(ncn2[C@@H]2O[C@H](COP(=O)(O)OP(=O)(O)NP(=O)(O)O)[C@@H](O)[C@H]2O)c(=O)[nH]1 [GMP-PNP]
BfNFeoAB; 5 mM GMP-PNP, nonhydrolyzable GTP analog
  hydrogen-deuterium exchange mass spectrometry: Binding of the nonhydrolyzable GTP analog with GMP-PNP elicits increases in protein protection

## FeoA domain of Bacteroides fragilis FeoAB (domain or fragment)
[1]
  kcat of GTP hydrolysis by BfNFeoAB (FeoA present on the chain), 1D-31P NMR, 37 °C: 0.00071 s⁻¹
  kcat of GTP hydrolysis by BfNFeoB-L (FeoA deleted), malachite green assay, 37 °C: 0.037 s⁻¹

## soluble N-terminal domain of Bacteroides fragilis FeoAB (FeoA fused to the N-terminal GTP-binding domain of FeoB) (domain or fragment)
[2]
  stoichiometry N: 3
